# Laboratory results as given in article PMC3658276, “Plant stem cell maintenance involves direct transcriptional repression of differentiation program”.
# T1: WUSCHEL (His-WUS) (UniProt Q9SB92 1-292)
# T1 sequence: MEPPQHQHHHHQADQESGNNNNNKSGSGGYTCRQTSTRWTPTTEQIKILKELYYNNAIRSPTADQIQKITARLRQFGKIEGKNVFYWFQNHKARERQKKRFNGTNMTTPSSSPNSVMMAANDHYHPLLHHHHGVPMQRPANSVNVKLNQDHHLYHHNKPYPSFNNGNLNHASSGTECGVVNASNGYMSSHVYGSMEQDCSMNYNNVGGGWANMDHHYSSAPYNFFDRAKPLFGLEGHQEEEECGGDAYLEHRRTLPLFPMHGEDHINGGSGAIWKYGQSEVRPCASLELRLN
# B1: KAN1 -1100 oligo (dsDNA)
# DNA 1: TACTGATATTTAATGTATATTTATCTCT
# DNA 2: AGAGATAAATATACATTAAATATCAGTA
# B2: KAN1 1050 oligo (dsDNA)
# DNA 1: TCTTACACTAATACTATATTTACACATG
# DNA 2: CATGTGTAAATATAGTATTAGTGTAAGA
# Target: T1, WUSCHEL (His-WUS)
# Assay: EMSA; supershift with anti-WUS antibody; EMSA conditions not given; as in Yadav et al 2011
# Settings: protein: recombinant; tags: His; chain copies: 2; (radiolabeled)
binder,measurement,value
B1,binding result,binds
B2,binding result,binds
